{"source": "patent US20110117206A1", "about": "“PHOSPHOPEPTIDES AND USE OF THE SAME” (PLANT BIOSCIENCE LIMITED, priority 2008, published 2011)", "experiment": "Partition of salts by ultrafiltration and ion equilibria model of nanocluster solutions", "format": "physicochemical", "settings": "nanocluster solution at pH 7.0", "method": "Nanocluster solutions of the Ca-free OPNmix in the Mg-free Buffer A were prepared by the urea/urease method with a pH between 5.0 and 7.5. They were allowed to equilibrate before ultrafiltration through Vivaspin 0.5 ml concentrators (Product VS0101 with a molecular weight cut off of 10,000 Da, Vivascience AG, Germany) using a centripetal field of 5000×g for 15 min. […] The ion activity product in the ultrafiltrates were calculated at each pH for a range of y values in order to find the value that was independent of pH.\nIn addition to the work with the OPNmix sample, a single determination was made of the partition of salts in a nanocluster solution at pH 7.0 prepared with the pure OPN 1-149 peptide.", "data": [{"substance": "OPN 1-149: N-terminal osteopontin phosphopeptide fragment from bovine milk, probably formed by plasmin; gel filtration fraction F3a", "values": [{"measurement": "ultrafiltrate concentration of Ca, experimental", "value": 1.4, "unit": "mM"}, {"measurement": "ultrafiltrate concentration of Ca^2+, experimental", "value": 1.1, "unit": "mM"}, {"measurement": "ultrafiltrate concentration of Pi, experimental", "value": 12.1, "unit": "mM"}]}]}
